± gives the uncertainty stated by the source.
B1: Segment polarity protein dishevelled homolog DVL-3, residues 2 to 81; numbered along this chain, Q92997 (parent)
chain: GETKIIYHLDGQETPYLVKLPLPAERVTLADFKGVLQRPSYKFFFKSMDDDFGVVKEEISDDNAKLPCFNGRVVSWLVSA

Variants of: B1
Assay: abundance fitness (aPCA) (normalised: wild type 0, dead -1); higher = more abundant; growth selection in yeast, the domain comes from the species named
Conditions: Homo sapiens

Row | Variant | abundance fitness
1 | GETKIIYHLDGQETPYLVKLPLPAERVTLADFKGVLQRPSYKFFIKSMDDDFGVVKEEISDDNAKLPCFNGRVVSWLVSA [F45I] | -0.969 ± 0.23
2 | GSTKIIYHLDGQETPYLVKLPLPAERVTLADFKGVLQRPSYKFFFKSMDDDFGVVKEEISDDNAKLPCFNGRVVSWLVSA [E2S] | -0.082 ± 0.059
3 | GETKIIYHLDGQETPYLVKLPLPAERVTQADFKGVLQRPSYKFFFKSMDDDFGVVKEEISDDNAKLPCFNGRVVSWLVSA [L29Q] | -0.91 ± 0.15
4 | GETKIIYHLDGQETPYLVKLPLPAERVTLADFKGVLQRPSYKFFFKSMDDDFGVVKEEISDDNAKLPCFNGRVVSWLCSA [V78C] | -0.131 ± 0.088
5 | GETKIIYHLDGQETPYLVKLPLPAERVTLADFKGVLQRPSYKFFFKSMDDDFGVVIEEISDDNAKLPCFNGRVVSWLVSA [K56I] | 0.03 ± 0.096
6 | GETKIIYHLDGQETPYLVKLPLPAERVTLADFKGVLQRPSYKFFFKSMDDDFGVVKEEISDDNAKLPCFMGRVVSWLVSA [N70M] | -0.374 ± 0.17
7 | GETKIIYHLDGQETPYLVKLPLPAERVTLADFKGVLVRPSYKFFFKSMDDDFGVVKEEISDDNAKLPCFNGRVVSWLVSA [Q37V] | -0.124 ± 0.054
8 | GETKIIYHLDGQETPYLVKLPLPAERVTLADFKGVLQRPSYKFFFKSMDDDFGVVKEEISDDNAKLPCFNGRIVSWLVSA [V73I] | 0.147 ± 0.059
9 | GETKIIYHLDGQETPYLVKLPLPAERVTLADFKGVLQRPSCKFFFKSMDDDFGVVKEEISDDNAKLPCFNGRVVSWLVSA [Y41C] | -0.227 ± 0.1
10 | GETKIIYHLDGQETPYLVKLPLPAERVTLADFKGVLQRPSKKFFFKSMDDDFGVVKEEISDDNAKLPCFNGRVVSWLVSA [Y41K] | -0.787 ± 0.15
11 | GETKIIYHLDGQETPYLIKLPLPAERVTLADFKGVLQRPSYKFFFKSMDDDFGVVKEEISDDNAKLPCFNGRVVSWLVSA [V18I] | -0.025 ± 0.078
12 | GETKIIYHLDGQETPYLVKLPLPAERVTLADFKGVLQGPSYKFFFKSMDDDFGVVKEEISDDNAKLPCFNGRVVSWLVSA [R38G] | -0.076 ± 0.052
13 | GETKIIYHLDGQETPYLVKLPLCAERVTLADFKGVLQRPSYKFFFKSMDDDFGVVKEEISDDNAKLPCFNGRVVSWLVSA [P23C] | -0.79 ± 0.18
14 | GETKIIYHLDGQSTPYLVKLPLPAERVTLADFKGVLQRPSYKFFFKSMDDDFGVVKEEISDDNAKLPCFNGRVVSWLVSA [E13S] | -0.107 ± 0.053
15 | GETKIIYHLDGQETPYLVKLPLPAERVTLADFKRVLQRPSYKFFFKSMDDDFGVVKEEISDDNAKLPCFNGRVVSWLVSA [G34R] | 0.156 ± 0.043
16 | GETKIIYHLDGLETPYLVKLPLPAERVTLADFKGVLQRPSYKFFFKSMDDDFGVVKEEISDDNAKLPCFNGRVVSWLVSA [Q12L] | -0.305 ± 0.072
17 | GETKIIYHLDGQETPYLVKLPLPAERVTLADFKGVLQRPSYKFFFKCMDDDFGVVKEEISDDNAKLPCFNGRVVSWLVSA [S47C] | 0.251 ± 0.065
18 | GETKIIYHLDGQETPYLVKLPLPAERVTLADFKGVLQRPSYKFFFKSMDDDFGVVKEEISDDNNKLPCFNGRVVSWLVSA [A64N] | -0.523 ± 0.18

Row | Variant | abundance fitness
19 | GETKIIYHLDGQETRYLVKLPLPAERVTLADFKGVLQRPSYKFFFKSMDDDFGVVKEEISDDNAKLPCFNGRVVSWLVSA [P15R] | -0.406 ± 0.052
20 | GETKIEYHLDGQETPYLVKLPLPAERVTLADFKGVLQRPSYKFFFKSMDDDFGVVKEEISDDNAKLPCFNGRVVSWLVSA [I6E] | 0.153 ± 0.053
21 | GETKIIYHLDGQETPYLVKLPLPAERVTLADFKGVLQRPSQKFFFKSMDDDFGVVKEEISDDNAKLPCFNGRVVSWLVSA [Y41Q] | -0.403 ± 0.1
22 | GETKIIYHLDGQETPYLVKLPLPAERVTLADFKGVLQRPSYKFFFKSMDDDFGVVKEEISDDNAKLPCFNGRVYSWLVSA [V74Y] | 0.236 ± 0.05
23 | GETKIIYHLDGQETPYLVKLPLPAERVTLADFKGVLQRPSYKFFFKSMDDDFGVVKEEISDDNAKLPCFNGRVNSWLVSA [V74N] | -0.511 ± 0.092
24 | GETKIIYHLDGQETPYLVKLPLPAERVTLADFKGVLQRESYKFFFKSMDDDFGVVKEEISDDNAKLPCFNGRVVSWLVSA [P39E] | 0 ± 0.064
25 | GETKIISHLDGQETPYLVKLPLPAERVTLADFKGVLQRPSYKFFFKSMDDDFGVVKEEISDDNAKLPCFNGRVVSWLVSA [Y7S] | -0.884 ± 0.11
26 | GETKIIYHLDGQYTPYLVKLPLPAERVTLADFKGVLQRPSYKFFFKSMDDDFGVVKEEISDDNAKLPCFNGRVVSWLVSA [E13Y] | -0.526 ± 0.1
27 | GETKIIYHLDGQETPYLVKLPLPALRVTLADFKGVLQRPSYKFFFKSMDDDFGVVKEEISDDNAKLPCFNGRVVSWLVSA [E25L] | -0.825 ± 0.12
28 | GETKILYHLDGQETPYLVKLPLPAERVTLADFKGVLQRPSYKFFFKSMDDDFGVVKEEISDDNAKLPCFNGRVVSWLVSA [I6L] | -0.152 ± 0.055
29 | GETKIIYHLDGQETHYLVKLPLPAERVTLADFKGVLQRPSYKFFFKSMDDDFGVVKEEISDDNAKLPCFNGRVVSWLVSA [P15H] | -0.348 ± 0.18
30 | GETKIIYHCDGQETPYLVKLPLPAERVTLADFKGVLQRPSYKFFFKSMDDDFGVVKEEISDDNAKLPCFNGRVVSWLVSA [L9C] | -0.528 ± 0.12
31 | GETKIIYHLDGQETPYLVKLPLPAERVTLADFKGVLQRPSYKFFFKSMDDDFGVVKEEISDDNAKLPCFNGRVVGWLVSA [S75G] | -0.221 ± 0.063
32 | GETKIIYHLDGQETPYLHKLPLPAERVTLADFKGVLQRPSYKFFFKSMDDDFGVVKEEISDDNAKLPCFNGRVVSWLVSA [V18H] | -0.298 ± 0.12
33 | GETKIIYHLDGQETPYLVKLPLPAERVTLADFKGVLQRPSYKFFFKSMDDDFGVVKEEISDDNEKLPCFNGRVVSWLVSA [A64E] | -0.27 ± 0.077
34 | GETKIIYHLDGQETPYLVKLPLPAERVTLADFKGVLQRPSYKFFFKSMDDDFGVVKEEISDDNAKLPCFNVRVVSWLVSA [G71V] | -0.888 ± 0.13
35 | GETKIIYHLDGQETPYLVKLPLPAERVTLADFKGVLQRPSYKFFFKSMDDDFGVVKEEISWDNAKLPCFNGRVVSWLVSA [D61W] | -0.679 ± 0.098
